Patent publication US20030211563A1 (UNIVERSITY OF VIRGINIA PATENT FOUNDATION, published 2003)

Target: T1, tssk 2 fused to the GAL4 DNA binding domain (DNA-BD) (human, UniProt P04386 1-147 (Saccharomyces cerevisiae entry), limits assumed)
T1 construct: Yeast two-hybrid bait in reporter strain AH109; also called bait gene (tssk 2); TSSK2 fusion protein with the DNA-BD
Assay: yeast two-hybrid, growth in His-free medium
Protocol: In this experiment, a bait gene (tssk 2) was first transformed into the reporter strain as a fusion to the GAL4 DNA binding domain (DNA-BD). A second plasmid that expressed tsks as fusion to the GAL 4 activation domain (AD) was also introduced into the AH109 reporter strain. Western blots were performed to confirm expression of fusion proteins in yeast. […] This interaction was used as a positive control. […] Neither GAL-AD alone nor the fusion proteins between GAL-AD and TSKS or GAL-AD and SV40 Large T antigen had the ability to activate transcription of the His gene.

B1: GAL4 activation domain alone (GAL-AD plasmid) (other, UniProt P04386 768-881, looked up)
chain: ANFNQSGNIADSSLSFTFTNSSNGPNLITTQTNSQALSQPIASSNVHDNFMNNEITASKIDDGNNSKPLSPGWTDQTAYNAFGITTGMFNTTTMDDVYNYLFDDEDTPPNPKKE
notes: Empty prey control in the yeast two-hybrid experiment; also called GAL-AD alone
binding result: no binding
